{
  "source": "patent US5492822A",
  "about": "“Method for recovering purified 100,000 dalton molecular weight fraction of human pancreatic cholesterol esterase” (Lange, III; Louis G., priority 1995, dated 1996)",
  "key": {"[1]": {"target": "T1, human pancreatic cholesterol esterase (Homo sapiens, UniProt P19835)", "T1 construct": "from tissue; host or cells: human pancreas (autopsy)", "T1 sequence (P19835 21-753)": "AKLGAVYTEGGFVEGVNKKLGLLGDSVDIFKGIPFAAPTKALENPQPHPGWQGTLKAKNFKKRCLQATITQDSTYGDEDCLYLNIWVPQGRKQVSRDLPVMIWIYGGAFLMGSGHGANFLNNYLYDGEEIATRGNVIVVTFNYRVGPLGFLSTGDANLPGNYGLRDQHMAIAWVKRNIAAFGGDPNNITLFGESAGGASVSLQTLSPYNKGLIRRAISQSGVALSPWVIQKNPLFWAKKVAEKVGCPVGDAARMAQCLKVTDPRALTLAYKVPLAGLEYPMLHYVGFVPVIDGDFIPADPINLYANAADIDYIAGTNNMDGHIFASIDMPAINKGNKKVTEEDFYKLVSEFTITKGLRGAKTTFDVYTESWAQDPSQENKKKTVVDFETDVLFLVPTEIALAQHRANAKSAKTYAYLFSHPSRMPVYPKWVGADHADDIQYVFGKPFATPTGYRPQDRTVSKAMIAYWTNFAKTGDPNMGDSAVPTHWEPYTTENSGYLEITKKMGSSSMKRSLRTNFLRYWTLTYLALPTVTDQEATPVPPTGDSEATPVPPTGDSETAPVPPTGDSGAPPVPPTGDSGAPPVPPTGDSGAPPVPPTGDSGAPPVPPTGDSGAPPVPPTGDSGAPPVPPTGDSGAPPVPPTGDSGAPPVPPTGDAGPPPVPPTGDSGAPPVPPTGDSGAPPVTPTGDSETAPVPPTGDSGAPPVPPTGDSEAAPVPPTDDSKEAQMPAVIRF", "experiment": "Binding of 125I-cholesterol esterase to small intestine vesicles and its displacement", "conditions": "specific binding, 15 min at 37°, 10 mM Tris-Cl pH 7.2; read-out: KD of cholesterol esterase binding to small intestine vesicles (Scatchard analysis)", "experimental": "(§1) Vesicles contained 1.0 mg protein/ml, 30 ug total cholesterol/mg protein and 50 ug endogenous heparin/mg protein. ^125 I-cholesterol esterase (100K or 67K form) was added (0 to 400 pmol; 2,000 dpm/pmol) to 100 ug of protein of small intestine vesicles in 10 mM Tris-Cl, pH 7.2 for 15 min. at 37°. The concentration of offered ^125 I-cholesterol esterase varied between 10 nM and 1 uM. Experiments were performed utilizing 1% blotto to decrease nonspecific protein binding to the vesicles. After the 15 minute incubation at 37°, the reaction was quenched and the assay mixtures were filtered through wells of a Millipore system containing 0.2 micron pore filters presoaked in buffer. The filtrate was-collected to assess free (unbound) enzyme, and the filters were then immediately washed with 15 ml of cold buffer and counted for ^125 I. Total binding was defined as ^125 I-dpm bound to filter paper minus ^125 I-dpm detected in the same reaction without vesicles (background). Nonspecific binding (radioactivity bound to the vesicles in the presence of excess cold ligand) was quantitated as the amount of ^125 I-cholesterol esterase binding in the presence of a 1000-fold molar excess of unlabeled cholesterol esterase as described above. Specific binding is defined as the difference between total bound dpm and nonspecific-bound dpm (converted to moles bound by dividing by the SRA)."}, "[2]": {"system": "human pancreatic cholesterol esterase", "experiment": "Binding of 125I-cholesterol esterase to small intestine vesicles and its displacement", "conditions": "in the presence of 5 mM taurocholate", "experimental": "as §1"}, "[3]": {"system": "intestinal cells (colonic adenocarcinoma cells CaCo-2)", "experiment": "Cellular uptake of 3H-cholesterol from 3H-cholesterol oleate", "format": "cell-based", "conditions": "5 nM human pancreatic cholesterol esterase (100 K), 1.5 mM taurocholate, no heparin", "experimental": "For example, intestinal cells (colonic adenocarcinoma cells CaCo-2, American Type Cell Culture) were grown in T150 flasks in medium consisting of DME, 10% v/v fetal bovine serum, 50 ug/ml gentamicin and 2 mM sodium pyruvate. Uptake experiments were conducted using 10^5 intestinal cells in PBS buffer containing 5 mM CaCl2, pH 7.4 in the presence of 5 uM ^3 H-cholesterol oleate (SRA=50 dpm/pmol) embedded in phosphatidylcholine vesicles along with 10% v/v lipoprotein-depleted serum and 1.5 mM taurocholate. At time zero, 5 nM human pancreatic cholesterol esterase (100 K, homogeneous) was added to one set of flasks, an equivalent volume of buffer to another set, and 1 mg/ml final concentration bulk heparin together with 5 nM enzyme to a third set. At selected times, i.e., 0, 15, 30, 60, 120 and 480 min, medium was removed and the cells were washed with medium to allow quantitation of ^3 H-cholesterol uptake. In the absence of enzyme, cellular uptake of ^3 H-cholesterol was linear and occurred at a rate of 400 dpm/hr/10^5 cells. In the presence of cholesterol esterase, the rate of ^3 H-cholesterol uptake was 1,800 dpm/hr/10^5 cells."}, "[4]": {"target": "T2, human pancreatic cholesterol esterase (100 kDa) (Homo sapiens, UniProt P19835)", "T2 construct": "from tissue; host or cells: human pancreas (autopsy)", "T2 sequence (P19835 21-753)": "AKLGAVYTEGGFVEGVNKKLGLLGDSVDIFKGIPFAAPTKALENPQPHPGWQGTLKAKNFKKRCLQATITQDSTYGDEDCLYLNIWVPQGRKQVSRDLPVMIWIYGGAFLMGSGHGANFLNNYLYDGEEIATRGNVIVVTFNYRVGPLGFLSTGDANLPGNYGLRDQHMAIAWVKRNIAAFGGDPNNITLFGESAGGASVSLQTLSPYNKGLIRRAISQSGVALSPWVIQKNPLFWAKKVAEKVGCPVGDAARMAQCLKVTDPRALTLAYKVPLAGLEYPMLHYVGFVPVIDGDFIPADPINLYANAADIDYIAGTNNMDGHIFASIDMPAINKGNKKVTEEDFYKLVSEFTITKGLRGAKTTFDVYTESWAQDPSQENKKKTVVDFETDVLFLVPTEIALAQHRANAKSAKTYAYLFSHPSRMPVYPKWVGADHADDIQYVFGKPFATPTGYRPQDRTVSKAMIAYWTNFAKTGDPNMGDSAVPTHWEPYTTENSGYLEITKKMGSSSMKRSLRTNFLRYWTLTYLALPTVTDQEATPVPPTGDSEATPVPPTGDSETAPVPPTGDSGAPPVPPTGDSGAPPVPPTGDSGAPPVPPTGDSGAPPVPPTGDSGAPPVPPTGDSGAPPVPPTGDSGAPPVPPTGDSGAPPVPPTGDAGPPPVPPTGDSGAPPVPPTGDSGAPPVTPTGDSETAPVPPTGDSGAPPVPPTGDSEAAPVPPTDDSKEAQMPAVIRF", "experiment": "Triolein hydrolysis by human pancreatic cholesterol esterase (100 kDa)", "format": "biochemical", "conditions": "purified 100 kDa esterase, in the presence of 5 mM taurocholate", "source_text": "(§2) Human pancreatic cholesterol esterase (100 kDa) and human pancreatic triglyceride lipase (52 kDa) were purified to homogeneity (Examples 1 and 3), and their abilities to cleave triglycerides and cholesteryl esters were compared. […] Virtually the same results were found with cholesteryl esters; the 100 kDa enzyme cleaved cholesterol oleate at a rate at least 490-fold greater than that found for the 52 kDa triglyceride lipase."}, "[5]": {"experiment": "Cleavage of cholesterol oleate, 100 kDa enzyme compared with 52 kDa triglyceride lipase", "format": "biochemical, human", "source_text": "as §2"}},
  "data": [
    {"molecule": "Human pancreatic cholesterol esterase (100K form): 100,000 molecular weight form of human pancreatic cholesterol esterase purified over heparin agarose (protein, UniProt P19835 21-753, looked up) Bile salt-activated lipase: AKLGAVYTEGGFVEGVNKKLGLLGDSVDIFKGIPFAAPTKALENPQPHPGWQGTLKAKNFKKRCLQATITQDSTYGDEDCLYLNIWVPQGRKQVSRDLPVMIWIYGGAFLMGSGHGANFLNNYLYDGEEIATRGNVIVVTFNYRVGPLGFLSTGDANLPGNYGLRDQHMAIAWVKRNIAAFGGDPNNITLFGESAGGASVSLQTLSPYNKGLIRRAISQSGVALSPWVIQKNPLFWAKKVAEKVGCPVGDAARMAQCLKVTDPRALTLAYKVPLAGLEYPMLHYVGFVPVIDGDFIPADPINLYANAADIDYIAGTNNMDGHIFASIDMPAINKGNKKVTEEDFYKLVSEFTITKGLRGAKTTFDVYTESWAQDPSQENKKKTVVDFETDVLFLVPTEIALAQHRANAKSAKTYAYLFSHPSRMPVYPKWVGADHADDIQYVFGKPFATPTGYRPQDRTVSKAMIAYWTNFAKTGDPNMGDSAVPTHWEPYTTENSGYLEITKKMGSSSMKRSLRTNFLRYWTLTYLALPTVTDQEATPVPPTGDSEATPVPPTGDSETAPVPPTGDSGAPPVPPTGDSGAPPVPPTGDSGAPPVPPTGDSGAPPVPPTGDSGAPPVPPTGDSGAPPVPPTGDSGAPPVPPTGDSGAPPVPPTGDAGPPPVPPTGDSGAPPVPPTGDSGAPPVTPTGDSETAPVPPTGDSGAPPVPPTGDSEAAPVPPTDDSKEAQMPAVIRF", "values": [
      {"measurement": "Kd", "setting": "[1]", "result": 100, "unit": "nM"},
      {"measurement": "specific binding to vesicles retained", "setting": "[2]", "result": 72, "unit": "%"},
      {"measurement": "rate of 3H-cholesterol uptake", "setting": "[3]", "result": "1,800 dpm/hr/10^5 cells"},
      {"measurement": "rate of triolein hydrolysis", "setting": "[4]", "result": "1,970 nmol/hr/g pancreas"},
      {"measurement": "rate of cholesterol oleate cleavage relative to the 52 kDa triglyceride lipase", "setting": "[5]", "result": "at least 490 fold"}
    ]}
  ]
}
